The text below walks through data of article PMC5619814.

The target in experiment [1] is soluble rabbit neonatal Fc receptor (rbFcRn), heterodimer of truncated rbFcRn α-chain and rabbit β2-microglobulin (rabbit).
Experiment [2] has as its target soluble human neonatal Fc receptor (hFcRn) (human) (UniProt P55899). Briefly: SPR; ProteOn XPR36, GLC chip; rbFcRn (about 1200 RU) or hFcRn (about 1600 RU) immobilised by amine coupling; IgG injected at 8.34-133 nM, 100 μl/min, PBS-T pH 6.0, 25°C; heterogeneous ligand model (two classes of non-interacting sites). (In SPR one partner is held on a chip, and binding of the other changes the refractive index at the surface.)

The target of experiment [3] is soluble rabbit neonatal Fc receptor (rbFcRn), heterodimer of truncated rbFcRn α-chain and rabbit β2-microglobulin (rabbit). The experiment is described as above.
The target of experiment [4] is human IgG1 (Omalizumab) (human). The experiment can be described thus: SPR; ProteOn XPR36, GLC chip; rbIgG (about 1900 RU) or hIgG1 (about 2100 RU) immobilised by amine coupling; rbFcRn or hFcRn injected at 37.5-600 nM, 100 μl/min, PBS-T pH 6.0, 25°C; Langmuir 1:1 model.

In the case of human IgG1 (Omalizumab) (antibody), the FcRn-mediated recycling assay in rabbit peritoneal macrophages: relative fluorescence intensity of Alexa 488-hIgG1 left in the cells after 20 min pulse at pH 6.0 and 30 min chase at pH 7.4 in experiment [1] amounted to 60%. Further, in experiment [2], the KD1 (high affinity class of sites, heterogeneous ligand model) is 9.99 nM and the KD2 (low affinity class of sites, heterogeneous ligand model) worked out at 57.2 nM. For the same substance, in experiment [3], the KD1 (high affinity class of sites, heterogeneous ligand model) amounted to 12.9 nM and the KD2 (low affinity class of sites, heterogeneous ligand model) was found to be 71.9 nM.

Regarding human IgG2 (Abcam) (antibody), the figures for the KD1 (high affinity class of sites, heterogeneous ligand model) in experiment [2] and in experiment [3] were 5.43 nM and 7.46 nM, respectively. Moreover, the KD2 (low affinity class of sites, heterogeneous ligand model) in experiment [2] worked out at 34.7 nM; in experiment [3] it was 106 nM.

On to human IgG3 (Abcam) (antibody), for which, in experiment [2], the KD1 (high affinity class of sites, heterogeneous ligand model) was 6.06 nM and the KD2 (low affinity class of sites, heterogeneous ligand model) is 17.4 nM. In experiment [3], this substance displayed a KD1 (high affinity class of sites, heterogeneous ligand model) of 2.57 nM and a KD2 (low affinity class of sites, heterogeneous ligand model) of 59.2 nM.

In experiment [2], human IgG4 (Abcam) (antibody) had a KD1 (high affinity class of sites, heterogeneous ligand model) of 2.36 nM and a KD2 (low affinity class of sites, heterogeneous ligand model) of 20.2 nM. In experiment [3], this substance gave a KD1 (high affinity class of sites, heterogeneous ligand model) of 3.86 nM and a KD2 (low affinity class of sites, heterogeneous ligand model) of 53.5 nM.

By Kd is commonly meant the free concentration of one partner at which half of the binding sites on the other are occupied at equilibrium, for simple one-to-one binding. The koff is the rate constant with which the complex falls apart. The kon is a measure of how fast the partners come together. Low readings indicate slow association, high ones fast association. In experiment [4], “soluble human neonatal Fc receptor (hFcRn) (from UniProt P55899 24-297; P61769 21-119) (complex)” yielded a Kd of 4.3 nM, a koff of 0.000592 s⁻¹ and a kon of 138000 M⁻¹ s⁻¹.

Regarding “soluble rabbit neonatal Fc receptor (rbFcRn), heterodimer of truncated rbFcRn α-chain and rabbit β2-microglobulin (complex)”, in experiment [4], the Kd stood at 1.19 nM, the koff amounted to 0.00039 s⁻¹ and the kon was found to be 327000 M⁻¹ s⁻¹.
